Reference: patent US20110262525A1, “METHODS OF TREATMENT” (SCHERING CORPORATION, priority 2006, published 2011)
Marks after values point to notes of the source that are not given here.

Legend:
[1] = tested on: SK-NEP-1 xenograft (Ewings); assay: PPTP in vivo xenograft SK-NEP-1; conditions: SK-NEP-1 (Ewings) xenograft, 0.5 mg per mouse ip twice weekly for four weeks
Experimental: (§1) The PPTP includes a molecularly characterized in vitro panel of cell lines (n=27) and in vivo panel of xenografts (n=61) representing most of the common types of childhood solid tumors and childhood ALL (acute lymphoblastic leukemia). LCF/HCA anti-IGF1R antibody was tested against the PPTP in vitro panel at concentrations ranging from 0.01 nM to 100 nM; and was tested against the PPTP in vivo panel at a dose of 0.5 mg per mouse administered twice weekly for four weeks via intraperitoneal injection. Three measures of antitumor activity were used: 1) response criteria modeled after the clinical setting; 2) treated-to-control (T/C) tumor volume at day 21; and 3) a time to event (4-fold increase in tumor volume) measure based on the median EFS of treated and control lines (intermediate activity required EFS (event-free survival) T/C>2, and high activity additionally required a net reduction in median tumor volume at the end of the experiment).
(§2) Stage 1 testing involved testing an agent across the entire PPTP panel of childhood cancer xenograft lines at its maximum tolerated dose (MTD) or at a dose selected based on PK/PD (pharmacokinetic/pharmacodynamic) studies using adult preclinical models.
(§3) In vivo solid tumor testing: For each xenograft line, 10 mice bearing subcutaneous (SC) tumors initiated treatment when the tumors were between 0.2-0.5 cm^3 in volume. Two perpendicular tumor diameters were measured at once weekly intervals with digital vernier calipers. Assuming tumors to be spherical, volumes were calculated from the formula (π/6)×d3, where d represented the mean diameter.
(§4) Drug: LCF/HCA was dissolved in 20mM sodium acetate pH 5 buffer containing 150 mM sodium chloride, and administered intraperitoneally twice weekly for 4 consecutive weeks at a dose of 0.5 mg per animal. […]
(§5) Median Group Response: Each individual mouse in each treatment group was assigned a response score (see Tables above) and a median score for the treatment group was calculated and then each treatment group was assigned an overall response according to the table below. […]

[2] = tested on: TC-71 xenograft (Ewings); assay: PPTP in vivo xenograft TC-71; conditions: TC-71 (Ewings) xenograft, 0.5 mg per mouse ip twice weekly for four weeks
Experimental: as §1, §2, §3, §4, §5

[3] = tested on: CHLA258 xenograft (Ewings); assay: PPTP in vivo xenograft CHLA258; parameters: key to EFS activity notation (high, intermediate, indeterminate): high (!); intermediate (#); indeterminate (^)
Experimental: as §1, §2, §3
(§6) Drug: LCF/HCA was dissolved in 20mM sodium acetate pH 5 buffer containing 150 mM sodium chloride, and administered intraperitoneally twice weekly for 4 consecutive weeks at a dose of 0.5 mg per animal. The antibody was provided to each testing site in coded vials for blinded testing according the PPTP's standard operating procedures.
(§7) Median Group Response: Each individual mouse in each treatment group was assigned a response score (see Tables above) and a median score for the treatment group was calculated and then each treatment group was assigned an overall response according to the table below.
(§8) Statistical Methods: Event-free survival (EFS) distributions of each treatment group were compared to the EFS distribution of the respective control group using the exact log rank test. P-values were 2-sided & were not adjusted for multiple comparisons given the exploratory nature of this study. P-values<0.05 were considered to be significant.

[4] = tested on: Rh28 xenograft (ALV Rhabdomyosarcoma); assay: PPTP in vivo xenograft Rh28; parameters: key to EFS activity notation (high, intermediate, indeterminate): high (!); intermediate (#); indeterminate (^)
Experimental: as §1, §2, §3, §6, §7, §8

[5] = tested on: GBM2 xenograft (Glioblastoma); assay: PPTP in vivo xenograft GBM2
Experimental: as §1, §2, §3, §4, §5

[6] = tested on: CHLA-79 xenograft (Neuroblastoma); assay: PPTP in vivo xenograft CHLA-79; parameters: key to EFS activity notation (high, intermediate, indeterminate): high (!); intermediate (#); indeterminate (^); conditions: CHLA-79 (Neuroblastoma) xenograft, 0.5 mg per mouse ip twice weekly for four weeks
Experimental: as §1, §2, §3, §6, §7, §8

[7] = tested on: ALL-2 xenograft (ALL B-precursor); assay: PPTP in vivo leukemia xenograft ALL-2; conditions: ALL-2 (ALL B-precursor) xenograft; 0.5 mg per mouse ip twice weekly for four weeks
Experimental: (§9) The PPTP includes a molecularly characterized in vitro panel of cell lines (n=27) and in vivo panel of xenografts (n=61) representing most of the common types of childhood solid tumors and childhood ALL (acute lymphoblastic leukemia). LCF/HCA anti-IGF1R antibody was tested against the PPTP in vitro panel at concentrations ranging from 0.01 nM to 100 nM; and was tested against the PPTP in vivo panel at a dose of 0.5 mg per mouse administered twice weekly for four weeks via intraperitoneal injection. […]
(§10) In vivo acute lymphoblastic leukemia testing: For each xenograft line, 8 mice were inoculated with 3-5×10^6 mononuclear cells purified from the spleens of secondary recipient mice. Engraftment was monitored weekly by flow cytometry, and treatment was initiated when the proportion of human CD45+ cells in the peripheral blood reached 1%. The proportion of human CD45+ cells in the peripheral blood was monitored weekly throughout the course of treatment. […]
as §5

[8] = tested on: ALL-3 xenograft (ALL B-precursor); assay: PPTP in vivo leukemia xenograft ALL-3; conditions: ALL-3 (ALL B-precursor) xenograft; 0.5 mg per mouse ip twice weekly for four weeks
Experimental: as §9, §10, §5

[9] = 0.5 mg per mouse ip twice weekly for four weeks
[10] = day 21, 0.5 mg per mouse ip twice weekly for four weeks

B1: LCF/HCA: fully human anti-IGF1R antibody comprising the mature 19D12/15H12 light chain F (LCF) and mature heavy chain A (HCA) (antibody, V domains shown)
VH: EVQLVQSGGGLVHPGGSLRLSCAASGFTFSSFAMHWVRQAPGKGLEWISVIDTRGATYYADSVKGRFTISRDNAKNSLYLQMNSLRAEDMAVYYCARLGNFYYGMDVWGQGTTVTVSS
VL: EIVLTQVPDFQSVTPKEKVTITCRASQSIGSSLHWYQQKPDQSPKLLIKYASQSLSGVPSRFSGSGSGTDFTLTINSLEAEDAAAYYCHQSSRLPHTFGGGTKVEIKRT
[1]
  EFS T/C: 0.9
  Median Final RTV: >4
[1]; day 21
  Tumor Volume T/C: 1.08
[2]
  EFS T/C: 1.2
  Median Final RTV: >4
[2]; day 21
  Tumor Volume T/C: 0.88
[3]; [9]
  EFS T/C: 4.2
  EFS activity notation (high, intermediate, indeterminate): #
  Median Final RTV: >4#
  Overall Group Response: PD2 (1 < MS ≦ 3)
[3]; [10]
  Tumor Volume T/C: 0.29
[4]; [9]
  EFS T/C: > 2.6
  EFS activity notation (high, intermediate, indeterminate): #
  Median Final RTV: 2.9#
  Overall Group Response: PD2 (1 < MS ≦ 3)
[4]; [10]
  Tumor Volume T/C: 0.36
[5]; [9]
  EFS T/C: 1.4
  Median Final RTV: >4
[5]; [10]
  Tumor Volume T/C: 0.73
[6]
  EFS T/C: 2.1
  EFS activity notation (high, intermediate, indeterminate): #
  Median Final RTV: 3.9#
  Overall Group Response: PD2 (1 < MS ≦ 3)
[6]; day 21
  Tumor Volume T/C: 0.69
[7]
  EFS T/C: 0.7
  Median Final RTV: >25
[8]
  EFS T/C: 0.4
  Median Final RTV: >25
